Data from patent publication EP4700044A1, “PROTEIN ANALOGUE AND USE THEREOF” (Shanghai Duomirui Biotechnology., Ltd., priority 2023, dated 2024).

Target: FGFR1c (UniProt P11362)
Experiment: cell-based or functional assay

FGFR1c, sequence (P11362 22-822): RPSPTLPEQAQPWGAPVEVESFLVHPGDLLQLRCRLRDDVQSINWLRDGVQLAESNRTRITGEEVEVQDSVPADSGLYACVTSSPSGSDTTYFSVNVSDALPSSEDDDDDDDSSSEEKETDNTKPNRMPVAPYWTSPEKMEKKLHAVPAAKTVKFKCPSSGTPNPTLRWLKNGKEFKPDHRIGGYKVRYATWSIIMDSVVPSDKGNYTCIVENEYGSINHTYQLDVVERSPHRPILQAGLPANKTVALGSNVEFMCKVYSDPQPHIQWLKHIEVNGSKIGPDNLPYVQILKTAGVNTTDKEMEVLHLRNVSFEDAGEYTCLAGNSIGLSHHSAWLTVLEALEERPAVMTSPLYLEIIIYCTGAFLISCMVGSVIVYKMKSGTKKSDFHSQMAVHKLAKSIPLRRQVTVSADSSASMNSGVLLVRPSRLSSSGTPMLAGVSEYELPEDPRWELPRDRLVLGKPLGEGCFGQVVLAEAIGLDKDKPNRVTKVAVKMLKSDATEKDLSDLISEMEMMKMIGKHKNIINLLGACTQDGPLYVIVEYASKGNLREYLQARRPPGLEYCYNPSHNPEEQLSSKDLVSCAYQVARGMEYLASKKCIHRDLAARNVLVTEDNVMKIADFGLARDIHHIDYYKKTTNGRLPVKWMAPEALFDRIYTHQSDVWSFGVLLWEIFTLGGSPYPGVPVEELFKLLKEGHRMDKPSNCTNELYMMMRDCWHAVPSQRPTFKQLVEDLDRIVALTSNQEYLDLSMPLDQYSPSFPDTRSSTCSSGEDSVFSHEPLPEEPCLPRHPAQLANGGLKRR

| Substance | EC50(nM), dual-luciferase reporter gene assay, iLite FGF21 assay ready cells |
| --- | --- |
| Human mature FGF21 fusion protein with a N-terminal PAS30 modification (PAS30FGF21) (ligand) | 0.3 nM |
| Human mature FGF21 fusion protein with a N-terminal PAS200 modification (PAS200FGF21) (ligand) | 1.98 nM |
| Human mature FGF21 fusion protein with a N-terminal PAS15 modification (PAS15FGF21) (from UniProt Q9NSA1 29-209) (ligand) | 0.22 nM |

Next, values leading:

| EC50(nM), dual-luciferase reporter gene assay, iLite FGF21 assay ready cells | Substance |
| --- | --- |
| 0.4 nM | Human mature FGF21 fusion protein with a N-terminal PAS50 modification (PAS50FGF21) (ligand) |
| 0.62 nM | Human mature FGF21 fusion protein with a N-terminal PAS100 modification (PAS100FGF21) (ligand) |
